One block for each molecule: values may come before it. Where a SMILES comes first, the peptide text is derived from it. The star is where a group is joined. Cbz = O=C(OCc1ccccc1)*
What was measured:
[1] = system: XIAP; assay: Co-immunoprecipitation of ARTS-XIAP complexes in COS-7 cells; type: cell-based, African Green Monkey
Method: (§1) Protein extracts were prepared with lysis buffer (150 mM NaCl, 50 mM Tris-HCl (pH 8), 1% NP-40, 0.5% deoxycholate acid) with protease inhibitors. Lysates containing equal amounts of total protein were pre-cleared overnight with 1 mg mouse IgG (Sigma) coupled with protein A/G-Sepharose mix (Amersham Biosciences) and the beads centrifuged. Supernatants were immuno-precipitated using 5 μl of anti-ARTS antibody for 4 h, anti-XIAP antibody, rabbit anti-myc antibody, or mouse IgG (negative control). Protein A/G Sepharose beads were added for 1 hour and washed four times with PBS. Antibodies against XIAP (as above), Myc (Santa Cruz), or anti-ARTS (NT) antibodies directed against the common N′ terminus of ARTS and H5 (ProSci Incorporated) were used for Western blot.

[2] = system: COS-7 cells; assay: Immunofluorescence of ARTS and XIAP localization in COS-7 cells; type: cell-based, African Green Monkey; conditions: COS-7 cells, 50 μM etoposide for 16 hour, with BOC
Method: Cells were fixed with 4% paraformaldehyde in PBS for 20 min at room temperature, washed with PBS, permeabilized with 0.5% Triton-X in PBS for 5 min, and incubated with primary antibodies for 2 hours at room temperature (rabbit polyclonal anti-ARTS (1:20,000; Sigma), monoclonal anti-ARTS, and/or monoclonal anti-XIAP (1:500; used in subsequent Examples). Cells were washed three times with PBS/0.1% Triton-X and incubated with FITC conjugated anti-mouse and Rhodamin^TX-conjugated anti-rabbit secondary antibodies (Jackson). Images were analyzed using a confocal laser microscope (Zeiss LSM 510). Mitochondria were visualized with MitoTracker® Red CMXRos (Molecular Probes/Invitrogen).
For caspase inhibition, we added […] of BOC-Asp(Ome)CH2F (Enzyme Systems Products) one hour prior to addition of the apoptotic agents.

[3] = system: XIAP; assay: XIAP protein levels by Western blot in COS-7 cells; type: cell-based, African Green Monkey
Method: as §1
(§2) Stably transfected COS-7 pE-ARTS cells were generated using the pEF1-IRES vector (Hobbs S et al, Biochem Biophys Res Commun 252: 368-372, 1998). The construct contains an EF-1 promoter followed by a multi cloning site, an EMC (Encephalomyocarditis virus) internal ribosome entry sites (IRES), and a puromycin resistance gene. AU5-tagged ARTS was inserted into the XhoI site downstream of the EF-1 promoter. The construct was stably transfected into COS-7 cells. The cells were maintained in medium containing 4 μg/ml puromycin.
Cells were treated for 2 hours with […] of the proteasome inhibitor (MG132, Calbiochem) prior to induction of apoptotis.

[4] = molecular target: T1, Myc epitope-tagged wild-type XIAP (Homo sapiens (Human), UniProt P98170 1-497); assay: co-IP with agarose-anti-myc beads from co-transfected COS-7 cells, Western blot
T1 construct: Expressed by transient transfection in COS-7 cells and used as cell lysate; The construct came from Dr. Colin S. Duckett; also called myc-tagged XIAP; mycXIAP
T1 sequence (P98170 whole entry): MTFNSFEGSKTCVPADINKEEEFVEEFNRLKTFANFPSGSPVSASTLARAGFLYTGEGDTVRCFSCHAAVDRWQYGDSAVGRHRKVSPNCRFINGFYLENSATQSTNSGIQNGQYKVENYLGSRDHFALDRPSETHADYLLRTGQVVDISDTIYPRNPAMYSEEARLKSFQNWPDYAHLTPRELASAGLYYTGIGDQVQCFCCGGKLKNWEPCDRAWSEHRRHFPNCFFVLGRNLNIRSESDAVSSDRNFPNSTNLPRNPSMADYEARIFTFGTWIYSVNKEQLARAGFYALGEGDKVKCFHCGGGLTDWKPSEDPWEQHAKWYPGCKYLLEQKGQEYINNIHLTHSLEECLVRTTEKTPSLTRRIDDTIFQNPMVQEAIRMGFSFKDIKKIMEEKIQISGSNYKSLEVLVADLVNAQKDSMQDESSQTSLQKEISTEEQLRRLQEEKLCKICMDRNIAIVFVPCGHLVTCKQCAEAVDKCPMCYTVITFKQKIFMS
Method: FIG. 4. ARTS binding to XIAP is specific and related to its apoptotic function. A. In-vivo binding of ARTS to XIAP was tested using co-IP with anti-ARTS, anti-XIAP or mouse IgG as a negative control, followed by anti-XIAP Western blot. B. Lysates of COS-7 cells co-transfected with pcDNA-mycXIAP and AU5-ARTS, AU5-ARTSmGTP or H5 DC were co-immunoprecipitated using agarose-anti-myc beads, followed by Western blot analysis with rabbit anti-myc and anti-ARTS. […] COS-7 cells were transiently transfected with AU5-ARTS, AU5-ARTSmGTP, AU5-ARTSDC or AU5-PNUTL2, and percent apoptosis determined. […] P-values (Anova) were 0.03 for non-treated cells, compared to 0.000004 for 1 hr and 0.00001 for 3 hr STS treatment.
as §1, with “Antibodies against XIAP (as above), Myc (Santa Cruz), or anti-ARTS (NT) antibodies directed against the common N′ terminus of ARTS and H5 (ProSci Incorporated) were used for Western blot.” left out

[5] = molecular target: T2, GST-XIAP fusion protein (Homo sapiens (Human), UniProt P98170 1-497); assay: GST-XIAP pull-down from lysate of transfected COS-7 cells, Western blot with anti-AU5
T2 construct: also called pGEX-XIAP; not shown: glutathione-S-transferase (GST) of a pGEX vector
T2 sequence (P98170 whole entry, the tested form may be a part): as the sequence (P98170 whole entry) above
Method: FIG. 3. ARTS specifically binds XIAP in vitro. In vitro binding was tested using a GST pull-down assay. A-B. COS-7 cells were transiently transfected with myc-tagged XIAP. GST pull-down was performed using GST-ARTS and Western blot using anti-XIAP and (A) and anti myc (B). C. COS-7 cells were transiently transfected with AU5-ARTS, AU5-ARTSDC or AU5-H5. GST pull down was performed using GST-XIAP and Western blot with anti-AU5. Binding to glutathione beads alone served as a negative control.
Cells were lysed in RIPA buffer (150 mM NaCl, 50 mM Tris-HCl (pH 8), 1% NP-40, 0.1% SDS, 0.5% deoxycholate acid containing protease inhibitors (mini Complete, Roche)). Samples were divided into two tubes; one was rotated for 4 h at 4° C. with GST-ARTS fusion protein coupled with the glutathione beads, or GST-XIAP fusion protein. The second tube was incubated with glutathione beads alone (negative control). Samples were centrifuged at 4000-RPM at 4° C. for 4 minute and washed five times in lysis buffer, then boiled in sample buffer for 5 minutes to elute bound proteins Proteins were separated on 12.5% SDS-PAGE gel followed by Western blot analysis using monoclonal anti-ARTS antibody (Sigma), monoclonal anti-XIAP antibody (BD Transduction Laboratories) or monoclonal anti-myc antibody (Clontech). […]

[6] = molecular target: T3, XIAP (Homo sapiens, UniProt P98170); assay: GST pull-down assay of ARTS and XIAP; type: binding; conditions: lysates of COS-7 cells transfected with AU5-tagged construct; Western blot anti-AU5
T3 construct: made in house; host or cells: bacteria (pGEX-XIAP plasmid obtained from Dr. Colin S. Duckett)
T3 sequence (P98170 whole entry): as above
From the text: For the glutathione-S-transferase (GST)-pull down assays, ARTS was subcloned into the pGEX 4T™ (Pharmacia Biotech) construct; GST-ARTS fusion protein was generated by Polymerase Chain Reaction (PCR) using the following primers: • BamHI-5′-[…]-3′ (SEQ ID No: 4) and • EcoRI-5′ […]-3′ (SEQ ID No: 5) and cloned into BamHI and EcoRI sites in pGEX 4T. Preparation of Beads
For in vitro binding studies, recombinant GST-ARTS or GST-XIAP fusion proteins were purified from bacteria. After sonication, 0.1% Triton X-100 and protease inhibitors (Mini-Complete™, Roche) were added to the bacterial extract followed by 10,000 rotations per minute (RPM) centrifugation. Supernatants of bacterial extracts were collected and incubated in the presence of glutathione-Sepharose 4B beads (Amersham Biosciences) for 30 minute at 4° C. The beads were washed three times.
Cells were lysed in RIPA buffer (150 mM NaCl, 50 mM Tris-HCl (pH 8), 1% NP-40, 0.1% SDS, 0.5% deoxycholate acid containing protease inhibitors (mini Complete, Roche)). Samples were divided into two tubes; one was rotated for 4 h at 4° C. with GST-ARTS fusion protein coupled with the glutathione beads, or GST-XIAP fusion protein. The second tube was incubated with glutathione beads alone (negative control). Samples were centrifuged at 4000-RPM at 4° C. for 4 minute and washed five times in lysis buffer, then boiled in sample buffer for 5 minutes to elute bound proteins Proteins were separated on 12.5% SDS-PAGE gel followed by Western blot analysis using monoclonal anti-ARTS antibody (Sigma), monoclonal anti-XIAP antibody (BD Transduction Laboratories) or monoclonal anti-myc antibody (Clontech).

[7] = system: COS-7 cells; assay: Apoptosis assays (TUNEL, anti-H2A.X) in COS-7 cells; type: cell-based, African Green Monkey; design: induction of apoptosis (TUNEL): dose or concentration left out as unconfirmed; conditions: transiently transfected COS-7 cells, staurosporine (STS) for 1 or 3 hours
Method: Apoptotic cells were detected using the anti-H2A.X antibody (Upstate; Paull, et al., 2000) or TUNEL. For TUNEL assays, COS-7 cells were transiently transfected with AU5-ARTS, AU5-ARTSΔC, AU5-ARTSmGTP and AU5-H5. Twenty-four hours after transfection, the cells were treated with staurosporine (STS) ([…]) for 1 or 3 hours, then fixed and permeabilized. Apoptosis levels were determined using the TUNEL. In situ™ cell death detection TMR kit (Roche) according to the manufacturer's protocol. All slides were coded and experiments were performed in a blind manner.
as §2

Molecule: COC(=O)CC(NC(=O)OC(C)(C)C)C(=O)CF (centres unmarked) [BOC, BOC-Asp(Ome)CH2F, reference compound]
formation of ARTS-XIAP complexes ([1]; COS-7 cells treated with staurosporine in the presence of caspase inhibitor BOC): did not inhibit, and in fact slightly increased | nuclear translocation of ARTS [2]: nuclear translocation of ARTS was blocked | sensitivity of the reduction of XIAP protein to caspase inhibition ([3]; COS-7 cells treated with staurosporine with or without BOC): not sensitive

Molecule: CC(C)C[C@@H](C=O)NC(=O)[C@H](CC(C)C)NC(=O)[C@H](CC(C)C)NC(=O)OCc1ccccc1 [MG132, reference compound] (Cbz-Leu-Leu-Leu-aldehyde)
ARTS-induced reduction of XIAP levels ([3]; cells treated for 2 hours with 20 mM MG132 prior to induction of apoptosis, data not shown): blocked ARTS-induced reduction of XIAP levels

binding result [4]: no binding | binding result [5]: no binding
B1: AU5-H5 (other, human, UniProt O43236-1 1-478, looked up)
chain: MDRSLGWQGNSVPEDRTEAGIKRFLEDTTDDGELSKFVKDFSGNASCHPPEAKTWASRPQVPEPRPQAPDLYDDDLEFRPPSRPQSSDNQQYFCAPAPLSPSARPRSPWGKLDPYDSSEDDKEYVGFATLPNQVHRKSVKKGFDFTLMVAGESGLGKSTLVNSLFLTDLYRDRKLLGAEERIMQTVEITKHAVDIEEKGVRLRLTIVDTPGFGDAVNNTECWKPVAEYIDQQFEQYFRDESGLNRKNIQDNRVHCCLYFISPFGHGLRPLDVEFMKALHQRVNIVPILAKADTLTPPEVDHKKRKIREEIEHFGIKIYQFPDCDSDEDEDFKLQDQALKESIPFAVIGSNTVVEARGRRVRGRLYPWGIVEVENPGHCDFVKLRTMLVRTHMQDLKDVTRETHYENYRAQCIQSMTRLVVKERNRNKLTRESGTDFPIPAVPPGTDPETEKLIREKDEELRRMQEMLHKIQKQMKENY
notes: Expressed in transfected COS-7 cells; The construct came from Dr. Seong-Jin Kim; also called pEF1-AU5-H5; H5 septin protein; not shown: AU5 tag

binding result [5]: no binding
B2: AU5-ARTS ΔC (other)
chain: MIKRFLEDTTDDGELSKFVKDFSGNASCHPPEAKTWASRPQVPEPRPQAPDLYDDDLEFRPPSRPQSSDNQQYFCAPAPLSPSARPRSPWGKLDPYDSSEDDKEYVGFATLPNQVHRKSVKKGFDFTLMVAGESGLGKSTLVNSLFLTDLYRDRKLLGAEERIMQTVEITKHAVDIEEKGVRLRLTIVDTPGFGDAVNNTECWKPV
notes: 1-206 is 274 minus 68; also called AU5-ARTSDC; not shown: AU5 tag at the N' terminus

B3: ARTSΔC: ARTS construct that lacks 68 amino acids at the unique ARTS C′-terminal sequence (protein)
chain: B2 chain
modifications: left off: small tags and cut ends
binding to GST-XIAP [6]: Neither ARTSΔC nor H5 were able to bind to XIAP | induction of apoptosis (TUNEL) [7]: did not induce apoptosis

binding result [4]: no binding
B4: AU5-ARTSmGTP (other)
chain: MIKRFLEDTTDDGELSKFVKDFSGNASCHPPEAKTWASRPQVPEPRPQAPDLYDDDLEFRPPSRPQSSDNQQYFCAPAPLSPSARPRSPWGKLDPYDSSEDDKEYVGFATLPNQVHRKSVKKGFDFTLMVAGESGLENPTLVNSLFLTDLYRDRKLLGAEERIMQTVEITKHAVDIEEKGVRLRLTIVDTPGFGDAVNNTECWKPVAEYIDQQFEQYFRDESGLNRKNIQDNRVHCCLYFISPFGHGYGPSLRLLAPPGAVKGTGQEHQGQGCH
notes: not shown: AU5 tag at the N' terminus

B5: ARTSmGTP: ARTS mutant, three amino acids (G K S with E N P) replaced at the GTP binding site (protein)
chain: B4 chain
modifications: left off: small tags and cut ends
binding to XIAP in co-IP ([1]; COS-7 cells co-transfected with pcDNA-mycXIAP and AU5-tagged construct): Neither of these mutants bound to XIAP
